Assay results published in IntAct's records for PubMed 29178645.

B1: Protein SHQ1 homolog (Homo sapiens), Q6PI26 (parent)
chain: MLTPAFDLSQDPDFLTIAIRVPYARVSEFDVYFEGSDFKFYAKPYFLRLTLPGRIVENGSEQGSYDADKGIFTIRLPKETPGQHFEGLNMLTALLAPRKSRTAKPLVEEIGASEIPEEVVDDEEFDWEIEQTPCEEVSESALNPQCHYGFGNLRSGVLQRLQDELSDVIDIKDPDFTPAAERRQKRLAAELAKFDPDHYLADFFEDEAIEQILKYNPWWTDKYSKMMAFLEKSQEQENHATLVSFSEEEKYQLRKFVNKSYLLDKRACRQVCYSLIDILLAYCYETRVTEGEKNVESAWNIRKLSPTLCWFETWTNVHDIMVSFGRRVLCYPLYRHFKLVMKAYRDTIKILQLGKSAVLKCLLDIHKIFQENDPAYILNDLYISDYCVWIQKVKSKKLAALAEALKEVSLTKAQLGLELEELEAAALLVQEEETALKAAHSVSGQQTLCSSSEASDSEDSDSSVSSGNEDSGSDSEQDELKDSPSETVSSLQGPFLEESSAFLIVDGGVRRNTAIQESDASQGKPLASSWPLGVSGPLIEELGEQLKTTVQVSEPKGTTAVNRSNIQERDGCQTPNN
partner: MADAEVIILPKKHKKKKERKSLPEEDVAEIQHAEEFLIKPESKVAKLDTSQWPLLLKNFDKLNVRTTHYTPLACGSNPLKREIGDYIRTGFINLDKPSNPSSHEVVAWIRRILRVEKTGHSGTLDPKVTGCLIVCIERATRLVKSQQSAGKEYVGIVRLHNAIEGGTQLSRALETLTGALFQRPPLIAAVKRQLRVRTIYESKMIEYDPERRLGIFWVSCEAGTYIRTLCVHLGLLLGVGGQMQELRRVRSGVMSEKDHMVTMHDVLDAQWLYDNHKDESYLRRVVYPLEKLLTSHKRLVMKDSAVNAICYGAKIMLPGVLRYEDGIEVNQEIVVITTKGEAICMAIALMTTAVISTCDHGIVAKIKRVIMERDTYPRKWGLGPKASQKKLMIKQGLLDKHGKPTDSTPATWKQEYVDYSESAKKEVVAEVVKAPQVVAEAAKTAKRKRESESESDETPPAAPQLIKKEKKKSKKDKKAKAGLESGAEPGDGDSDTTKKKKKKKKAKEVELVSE

Variants of: B1
Conditions: with dkc1_human DKC1, O60832

Effect of a mutation on the interaction, decreasing interaction strength:
MLTPAFDLSQDPDFLTIAIRVPYARVSEFDVYFEGSDFKFYAKPYFLRLTLPGRIVENGSEQGSYDADKGIFTIRLPKETPGQHFEGLNMLTALLAPRKSRTAKPLVEEIGASEIPEEVVDDEEFDWEIEQTPCEEVSESALNPQCHYGFGNLRSGVLQRLQDELSDVIDIKDPDFTPAAERRQKRLAAELAKFDPDHYLADFFEDEAIEQILKYNPWWTDKYSKMMAFLEKSQEQENHATLVSFSEEEKYQLRKFVNKSYLLDKRACRQVCYSLIDILLAYCYETRVTEGEKNVESAWNIRKLSPTLCWFETWTNVHDIMVSFGRRVLCYPLYRHFKLVMKAYRDTIKILQLGKSAVLKCLLDIHKIFQENDPAYILNDLYISDYCVWIQKVKSKKLAALAEALKEVSLTKAQLGLELEELEAAVLLVQEEETALKAAHSVSGQQTLCSSSEASDSEDSDSSVSSGNEDSGSDSEQDELKDSPSETVSSLQGPFLEESSAFLIVDGGVRRNTAIQESDASQGKPLASSWPLGVSGPLIEELGEQLKTTVQVSEPKGTTAVNRSNIQERDGCQTPNN [A426V]
MLTPAFDLSQDPDFLTIAIRVPYARVSEFDVYFEGSDFKFYAKPYFLRLTLPGRIVENGSEQGSYDADKGIFTIRLPKETPGQHFEGLNMLTALLAPRKSRTAKPLVEEIGASEIPEEVVDDEEFDWEIEQTPCEEVSESALNPQCHYGFGNLRSGVLQRLQDELSDVIDIKDPDFTPAAERRQKRLAAELAKFDPDHYLADFFEDEAIEQILKYNPWWTDKYSKMMAFLEKSQEQENHATLVSFSEEEKYQLRKFVNKSYLLDKRACRQVCYSLIDILLAYCYETRVTEGEKNVESAWNIRKLSPTLCWFETWTNVHDIMVSFGRRVLCYPLYCHFKLVMKAYRDTIKILQLGKSAVLKCLLDIHKIFQENDPAYILNDLYISDYCVWIQKVKSKKLAALAEALKEVSLTKAQLGLELEELEAAVLLVQEEETALKAAHSVSGQQTLCSSSEASDSEDSDSSVSSGNEDSGSDSEQDELKDSPSETVSSLQGPFLEESSAFLIVDGGVRRNTAIQESDASQGKPLASSWPLGVSGPLIEELGEQLKTTVQVSEPKGTTAVNRSNIQERDGCQTPNN [R335C;A426V]
MLTPAFDLSQDPDFLTIAIRVPYARVSEFDVYFEGSDFKFYAKPYFLRLTLPGRIVENGSEQGSYDADKGIFTIRLPKETPGQHFEGLNMLTALLAPRKSRTAKPLVEEIGASEIPEEVVDDEEFDWEIEQTPCEEVSESALNPQCHYGFGNLRSGVLQRLQDELSDVIDIKDPDFTPAAERRQKRLAAELAKFDPDHYLADFFEDEAIEQILKYNPWWTDKYSKMMAFLEKSQEQENHATLVSFSEEEKYQLRKFVNKSYLLDKRACRQVCYSLIDILLAYCYETRVTEGEKNVESAWNIRKLSPTLCWFETWTNVHDIMVSFGRRVLCYPLYCHFKLVMKAYRDTIKILQLGKSAVLKCLLDIHKIFQENDPAYILNDLYISDYCVWIQKVKSKKLAALAEALKEVSLTKAQLGLELEELEAAALLVQEEETALKAAHSVSGQQTLCSSSEASDSEDSDSSVSSGNEDSGSDSEQDELKDSPSETVSSLQGPFLEESSAFLIVDGGVRRNTAIQESDASQGKPLASSWPLGVSGPLIEELGEQLKTTVQVSEPKGTTAVNRSNIQERDGCQTPNN [R335C]
